According to US20090118167A1, “Selective Vpac2 Receptor Peptide Agonists” (Eli Lilly and Company Patent Division, priority 2004, published 2009):
Square brackets hold non-standard residues; d marks the D form. Ends that are not written are not given here. Nle = CCCC[C@H](N)C(=O)O; Orn = NCCC[C@H](N)C(=O)O; Aib = CC(C)(N)C(=O)O

Assays:
human VPAC2 receptor [1] = target: T1, human VPAC2 receptor (human, UniProt P41587 24-438); assay: filter binding assay, human VPAC2 membranes, displacement of 125I-VIP
T1 construct: whole, on cells; cAMP Alpha screen assay: whole cells
T1 sequence (looked up): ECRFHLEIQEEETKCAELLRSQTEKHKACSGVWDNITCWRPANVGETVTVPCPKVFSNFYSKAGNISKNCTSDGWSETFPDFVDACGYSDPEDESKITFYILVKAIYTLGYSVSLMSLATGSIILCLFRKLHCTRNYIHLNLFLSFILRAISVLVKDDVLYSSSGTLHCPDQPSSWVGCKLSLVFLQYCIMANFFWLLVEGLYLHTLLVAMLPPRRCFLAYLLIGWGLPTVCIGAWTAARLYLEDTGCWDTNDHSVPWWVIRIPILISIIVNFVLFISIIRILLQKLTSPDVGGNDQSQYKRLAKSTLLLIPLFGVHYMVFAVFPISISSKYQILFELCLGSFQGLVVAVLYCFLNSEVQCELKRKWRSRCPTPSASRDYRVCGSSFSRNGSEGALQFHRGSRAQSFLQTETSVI
Experimental: The assay plate is filled with 25 μL assay buffer, 25 μL membranes (2.5 μg) suspended in assay buffer, 25 μL compound (agonist) in assay buffer, and 25 μL tracer (about 40000 cpm) in assay buffer. The filled plate is incubated for 1 hour with shaking.
The transfer from assay plate to filter plate is conducted. The blocking buffer is aspirated by vacuum filtration and washed two times with flush buffer. 90 μL is transferred from the assay plate to the filter plate. The 90 μL transferred from assay plate is aspirated and washed three times with 200 μL flush buffer. The plastic support is removed. It is dried for 1 hour at 60° C. 30 μL Microscint is added. The count is performed.

human VPAC2 receptor [2] = target: T1, human VPAC2 receptor; assay: cell-based or functional assay
rat VPAC1 receptor = target: T2, rat VPAC1 receptor (rat, UniProt P30083 31-459); assay: cell-based or functional assay
T2 sequence (looked up): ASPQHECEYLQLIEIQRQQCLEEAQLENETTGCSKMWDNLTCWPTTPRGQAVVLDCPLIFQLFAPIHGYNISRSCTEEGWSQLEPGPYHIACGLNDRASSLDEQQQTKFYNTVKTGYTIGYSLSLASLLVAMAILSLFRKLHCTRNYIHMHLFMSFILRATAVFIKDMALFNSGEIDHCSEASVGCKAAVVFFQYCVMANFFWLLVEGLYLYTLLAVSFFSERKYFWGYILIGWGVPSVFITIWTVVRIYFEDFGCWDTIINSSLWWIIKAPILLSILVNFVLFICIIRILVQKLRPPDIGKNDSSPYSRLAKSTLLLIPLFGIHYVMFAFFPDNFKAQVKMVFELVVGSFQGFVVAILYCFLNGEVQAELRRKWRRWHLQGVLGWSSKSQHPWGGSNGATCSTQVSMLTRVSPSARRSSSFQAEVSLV

rat VPAC2 receptor = target: T3, rat VPAC2 receptor (rat, UniProt P35000 23-437); assay: cell-based or functional assay
T3 sequence (looked up): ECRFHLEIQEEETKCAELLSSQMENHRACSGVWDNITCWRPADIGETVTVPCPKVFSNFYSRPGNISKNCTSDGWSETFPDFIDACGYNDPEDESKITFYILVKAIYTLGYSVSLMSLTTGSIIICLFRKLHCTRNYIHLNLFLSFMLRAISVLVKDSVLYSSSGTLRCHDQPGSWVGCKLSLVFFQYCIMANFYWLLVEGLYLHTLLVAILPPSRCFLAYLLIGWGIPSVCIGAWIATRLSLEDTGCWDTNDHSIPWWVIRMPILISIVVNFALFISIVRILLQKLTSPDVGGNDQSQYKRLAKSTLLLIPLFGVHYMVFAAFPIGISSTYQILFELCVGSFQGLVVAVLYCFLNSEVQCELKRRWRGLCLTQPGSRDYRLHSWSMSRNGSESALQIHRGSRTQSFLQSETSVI

Binder: HSDAVFTENYTKL[Aib]KQ[Nle]AAKKYLNDLKQGGPSSGAPPPC (ends and bridges not checked; also: further groups not given here) [P255 (cyclic PEGylated VPAC2 receptor peptide agonist)]
- IC50 (human VPAC2 receptor [1]): > 0.1 µM
- EC50 for cAMP generation, Alpha screen (human VPAC2 receptor [2]): 0.111 µM
- EC50 for cAMP generation, DiscoveRx, CHO-PO cells (rat VPAC1 receptor): > 0.35 µM
- EC50 for cAMP generation, DiscoveRx, CHO-PO cells (rat VPAC2 receptor): 0.0514 µM

Binder: HSDAVFTENYTKL[Aib]KQ[Nle]AAKKYLNDLKKGGPSSGAPPPC (ends and bridges not checked; also: further groups not given here) [P257 (cyclic PEGylated VPAC2 receptor peptide agonist)]
- IC50 (human VPAC2 receptor [1]): 0.0327 µM
- EC50 for cAMP generation, Alpha screen (human VPAC2 receptor [2]): 0.0422 µM
- EC50 for cAMP generation, DiscoveRx, CHO-PO cells (rat VPAC1 receptor): > 1 µM
- EC50 for cAMP generation, DiscoveRx, CHO-PO cells (rat VPAC2 receptor): 0.0379 µM

Binder: HSDAVFTENYTKLRKQ[Nle]AAKKYLNDLKQGGPSSGAPPPC (ends and bridges not checked; also: further groups not given here) [P239 (cyclic PEGylated VPAC2 receptor peptide agonist)]
- IC50 (human VPAC2 receptor [1]): 0.00833 µM
- EC50 for cAMP generation, Alpha screen (human VPAC2 receptor [2]): 0.00442 µM
- EC50 for cAMP generation, DiscoveRx, CHO-PO cells (rat VPAC1 receptor): 0.0278 µM
- EC50 for cAMP generation, DiscoveRx, CHO-PO cells (rat VPAC2 receptor): 0.0112 µM

B1: P201 (cyclic PEGylated VPAC2 receptor peptide agonist) (peptide)
peptide: HSDAVFTENYTKLRKQ[Nle]AAKKYLNDLKKGGPSSGAPPPC
modifications: not fully specified (residue 39); ends and bridges not checked; also: further groups not given here
- IC50 (human VPAC2 receptor [1]): 0.00411 µM
- EC50 for cAMP generation, Alpha screen (human VPAC2 receptor [2]): 0.00782 µM
- EC50 for cAMP generation, DiscoveRx, CHO-PO cells (rat VPAC1 receptor): 0.0208 µM
- EC50 for cAMP generation, DiscoveRx, CHO-PO cells (rat VPAC2 receptor): 0.0132 µM

B2: P463 (cyclic PEGylated VPAC2 receptor peptide agonist) (peptide)
peptide: HSDAVFTENYT[Orn]LR[Aib]Q[Nle]AA[Orn]KYLNDL[Orn][Orn]GGPSSGAPPPC
modifications: also: cyclic by a side-chain bridge (lactam or disulfide), places not given here, PEGylated, site not given here
- IC50 (human VPAC2 receptor [1]): > 0.1 µM
- EC50 for cAMP generation, Alpha screen (human VPAC2 receptor [2]): 0.365 µM
- EC50 for cAMP generation, DiscoveRx, CHO-PO cells (rat VPAC1 receptor): 0.184 µM
- EC50 for cAMP generation, DiscoveRx, CHO-PO cells (rat VPAC2 receptor): 0.182 µM

Binder: HSDAVFTENYTKLR[Aib]Q[Nle]AAKKYLNDLK[Aib]KGGPSSGAPPPC (also: further groups not given here) [P348 (cyclic PEGylated VPAC2 receptor peptide agonist)]
- IC50 (human VPAC2 receptor [1]): 0.00354 µM
- EC50 for cAMP generation, Alpha screen (human VPAC2 receptor [2]): 0.00582 µM
- EC50 for cAMP generation, DiscoveRx, CHO-PO cells (rat VPAC1 receptor): 0.0369 µM
- EC50 for cAMP generation, DiscoveRx, CHO-PO cells (rat VPAC2 receptor): 0.00326 µM

B3: P376 (cyclic PEGylated VPAC2 receptor peptide agonist) (peptide)
peptide: HSDAVFTENYT[Orn]LR[Aib]Q[Nle]AA[Orn]KYLNDL[Orn][Orn]GGPSSGAPPPC
modifications: not fully specified (residue 39); also: cyclic, bridge type and places not given here, PEGylated, site not placed
- IC50 (human VPAC2 receptor [1]): 0.00489 µM
- EC50 for cAMP generation, Alpha screen (human VPAC2 receptor [2]): 0.00471 µM
- EC50 for cAMP generation, DiscoveRx, CHO-PO cells (rat VPAC1 receptor): 0.0484 µM
- EC50 for cAMP generation, DiscoveRx, CHO-PO cells (rat VPAC2 receptor): 0.00913 µM
